The target in test [1] is T1, SSX-3 peptide on HLA-A*02:01 (human).
T1 peptide: KVSEKIVYV
Kind of test: cytokine release.

For test [2], the target named is T2, SSX-7 peptide on HLA-A*02:01 (human).
T2 peptide: KSLEKISYV
The experiment in a line: cytokine release.

Test [3] concerns the target T3, SSX-10 peptide on HLA-A*02:01 (human).
T3 peptide: KASEKILYV
The experiment in a line: cytokine release.

For test [4], the target named is T4, SSX-9 peptide on HLA-A*02:01 (human).
T4 peptide: KSSEKIIYV
The experiment in a line: cytokine release.

Test [5] addresses T5, SSX-6 peptide on HLA-A*02:01 (human).
T5 peptide: KFSEKISCV
The experiment in a line: cytokine release.

In test [6] the target is T6, SSX-4 peptide on HLA-A*02:01 (human).
T6 peptide: KSSEKIVYV
The experiment in a line: cytokine release.

For test [7], the target named is T7, SSX-1; SSX-8 peptide on HLA-A*02:01 (human).
T7 peptide: KYSEKISYV
The experiment in a line: cytokine release.

Test [8] has as its target T8, SSX-5 peptide on HLA-A*02:01 (human).
T8 peptide: KASEKIIYV
Kind of test: cytokine release.

The target in test [9] is T9, SSX-2 peptide on HLA-A*02:01 (human).
T9 peptide: KASEKIFYV
Kind of test: multimer staining.

The values that follow come from patent US20160279196A1 (published 2016).

B1: SSX-2 TCR (TCR, V domains shown)
Valpha: AQKITQTQPGMFVQEKEAVTLDCTYDTSDPSYGLFWYKQPSSGEMIFLIYQGSYDQQNATEGRYSLNFQKARKSANLVISASQLGDSAMYFCAMTSGFGNEKLTFGTGTRLTIIP
Vbeta: DAMVIQNPRYQVTQFGKPVTLSCSQTLNHNVMYWYQQKSSQAPKLLFHYYDKDFNNEADTPDNFQSRRPNTSFCFLDIRSPGLGDAAMYLCATSRGQGGQPQHFGDGTRLSIL
For B1, the binding result was “recognises” in test [1]; “no recognition” in test [2]; “recognises” in test [3]; “recognises” in test [4]; “no recognition” in test [5]; “recognises” in [6]. For the same molecule, the binding result is “no recognition” in test [7], “recognises” in [8] and “recognises” in [9].
